Results from patent US20190169261A1 (published 2019).

Experiments:
[1] = target: T1, PRAME peptide on HLA-A*02:01 (human); assay: killing
T1 peptide: SLLQHLIGL

[2] = target: T2, PRAME peptide on HLA-A*02:01 (human); assay: multimer staining
T2 peptide: VLDGLDVLL

binding result [2]: recognises
B1: TCR T4.8-1-29 (TCR, V domains shown)
Valpha: EDQVTQSPEALRLQEGESSSLNCSYTVSGLRGLFWYRQDPGKGPEFLFTLYSAGEEKEKERLKATLTKKESFLHITAPKPEDSATYLCAVHSTAQAGTALIFGKGTTLSVSS
Vbeta: DSGVTQTPKHLITATGQRVTLRCSPRSGDLSVYWYQQSLDQGLQFLIQYYNGEERAKGNILERFSAQQFPDLHSELNLSSLELGDSALYFCASSTHRGQTNYGYTFGSGTRLTVV
binding result [1]: no recognition
